The target of one assay is T1, Cynomolgus LAG-3-ECD (cynomolgus).
T1 construct: as printed it starts with the N-terminal leader (MWEAQ...) and ends with a His tag; also called Cynomolgus LAG-3 ECD-His
T1 chain: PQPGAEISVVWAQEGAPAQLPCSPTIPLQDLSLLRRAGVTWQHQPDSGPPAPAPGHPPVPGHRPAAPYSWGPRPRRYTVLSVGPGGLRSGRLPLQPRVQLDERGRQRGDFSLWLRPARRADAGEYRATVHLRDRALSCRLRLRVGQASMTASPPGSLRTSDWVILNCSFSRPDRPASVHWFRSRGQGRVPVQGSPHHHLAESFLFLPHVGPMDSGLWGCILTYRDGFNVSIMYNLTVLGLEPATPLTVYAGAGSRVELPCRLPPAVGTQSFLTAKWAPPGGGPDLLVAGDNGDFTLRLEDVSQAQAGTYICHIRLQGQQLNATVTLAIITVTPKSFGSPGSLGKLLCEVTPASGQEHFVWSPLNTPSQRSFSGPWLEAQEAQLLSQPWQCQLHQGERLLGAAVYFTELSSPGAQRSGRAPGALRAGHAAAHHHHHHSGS
Briefly: SPR (Biacore T200), antibody captured on PrismA chip, ECD as analyte, 25° C. How it is done:
(§1) A Biacore® T200 (Cytiva, Marlborough, MA) was used to measure the binding kinetics and affinities of the LAG-3 antibody to the LAG-3 soluble extracellular domain (ECD) and the bispecific antibody to soluble LAG-3-ECD and PD-1-ECD (human: Sino Biologicals, Cat #10377-H08H; cynomolgus: Sino Biologicals, Cat #90311-C08H) by surface plasmon resonance. Samples were diluted in HBS-EP+ (10 mM Hepes, 150 mM NaCl, 3 mM EDTA, 0.05% Tween-20, pH 7.6) (Teknova Cat #H8022) with 5 g/L of BSA (Jackson ImmunoResearch Cat #001-000-161) running buffer. PrismA Series S Sensor chip (Cat #29650263) is purchased from Cytiva.
(§2) Binding was evaluated using multi-cycle kinetics by an antibody capture method. Each cycle was performed at either 37° C. or 25° C. at a flow rate of 10 μL/min for antibody capture to the PrismA chip and 100 μL/min for analyte association (with 120 sec contact time) and dissociation (900 sec). Each cycle consisted of the following steps: injection of bispecific antibody at 1 μg/mL in HBS-EP+ targeting Rmax values of 125 RU (LAG-3 arm), 294 RU (PD-1 arm) and 63 RU (LAG-3 antibody) on flow cell, injection of analyte in HBS-EP+(concentration range of 62.5 nM to 0.25 nM by two-fold serial dilution for both human PD-1-ECD-His (SEQ ID NO: 40) and human LAG-3-His (SEQ ID NO: 42) followed by 900-second dissociation phase, and regeneration using 10 μL of 10 mM glycine hydrochloride, pH 1.5 over a 60-second contact time utilizing a 10 μL/min flow rate. All analyte concentrations were determined utilizing monomeric molecular weight (MW) values. Association rates (kₒₙ) and dissociation rates (koff) for LAG-3-ECD and PD-1-ECD were evaluated using double referencing by flow-cell one reference subtraction in addition to 0 nM blank subtraction and fit to “1:1 (Langmuir) binding” model in the BIAevaluation software version 4.1. The dissociation constant (KD) was calculated from the binding kinetics according to the relationship KD=Koff/Kₒₙ. Stoichiometry=[RUₘₐₓ/RUcaptured]/[MWanalyte/MWantibody] where MWAntibodyA is 150 kDa. Values are reported as mean±standard deviation.

In assay [1] the target is T2, Human PD-1 ECD-His (human, UniProt Q15116 25-167).
T2 construct: Soluble analyte in SPR; the entry includes the His tag
T2 sequence (Q15116 other isoform, or with tags, fused parts or gaps): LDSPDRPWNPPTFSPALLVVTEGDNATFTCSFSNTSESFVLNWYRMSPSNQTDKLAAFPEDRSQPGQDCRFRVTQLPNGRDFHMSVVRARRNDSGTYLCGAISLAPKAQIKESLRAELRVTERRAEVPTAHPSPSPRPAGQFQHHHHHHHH
Description: SPR (Biacore T200), antibody captured on PrismA chip, ECD as analyte, 25° C.; 25° C. As to the method:
as §1
(§3) Binding was evaluated using multi-cycle kinetics by an antibody capture method. […] Each cycle consisted of the following steps: injection of bispecific antibody at 1 μg/mL in HBS-EP+ targeting Rmax values of 125 RU (LAG-3 arm), 294 RU (PD-1 arm) and 63 RU (LAG-3 antibody) on flow cell, injection of analyte in HBS-EP+(concentration range of 62.5 nM to 0.25 nM by two-fold serial dilution for both human PD-1-ECD-His (SEQ ID NO: 40) and human LAG-3-His (SEQ ID NO: 42) followed by 900-second dissociation phase, and regeneration using 10 μL of 10 mM glycine hydrochloride, pH 1.5 over a 60-second contact time utilizing a 10 μL/min flow rate. All analyte concentrations were determined utilizing monomeric molecular weight (MW) values. […]
In general terms: SPR reads the build-up and loss of mass on a sensor chip optically.

Assay [2] addresses T3, cell membrane-expressed cynomolgus LAG-3/PD-1 (cynomolgus).
T3 construct: whole, on cells; Two separate membrane proteins on the same cells, not a complex; also called Cyno CD4
Briefly: flow cytometry, labeled antibody on anti-CD3 activated cynomolgus PBMC, CD8 T cells, percent of cells bound (mean +/- SEM, n=3). How it is done: (§4) Cells were incubated with 10-12 point, 3-fold serial dilutions of the respective labeled antibody (Invitrogen #S20026, Invitrogen #C20029), starting at 30 ug/mL, in PBS+2% FCS for 30 minutes at 4° C. and containing the following: CD4 eBioscience #12-0047-42 or Biolegend #344634; CD8 eBioscience #25-0088-42; CD3 eBioscience 56-0038-82 for human cells and BD #557917 for cyno cells; CD33 eBioscience 45-0338-42 for human cells; Live/Dead eBioscience #65-0865-18. After washing thoroughly, cells were processed on a BD Fortessa or Fortessa X20 cytometer, and data were analyzed with Flowjo software (BD Biosciences). Percent of cells bound by the respective antibody is quantified and graphed with Prism (Graphpad, San Diego, CA).
On the technique in general: A flow cytometer gives signals particle by particle.

Assay [3] has as its target T3, cell membrane-expressed cynomolgus …. Description: flow cytometry, labeled antibody on anti-CD3 activated cynomolgus PBMC, CD4 T cells, percent of cells bound (mean +/- SEM, n=3). How it is done:
as §4

The target in assay [4] is T4, cell membrane-expressed human LAG-3/PD-1 (human, UniProt P18627 23-525; Q15116 25-288).
T4 construct: also called Human CD4
T4 sequence (Q15116 25-288 limits assumed, one chain of several): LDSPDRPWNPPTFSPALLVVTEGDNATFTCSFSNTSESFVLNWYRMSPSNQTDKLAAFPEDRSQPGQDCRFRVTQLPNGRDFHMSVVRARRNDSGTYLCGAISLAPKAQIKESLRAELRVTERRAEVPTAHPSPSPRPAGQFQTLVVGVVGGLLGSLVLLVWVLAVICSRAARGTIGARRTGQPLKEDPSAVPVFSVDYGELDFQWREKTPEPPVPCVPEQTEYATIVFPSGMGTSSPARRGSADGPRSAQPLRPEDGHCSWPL
Briefly: flow cytometry, labeled antibody on anti-CD3 activated human PBMC, CD4 T cells, percent of cells bound (mean +/- SEM, n=3). As to the method:
as §4

Assay [5] addresses T2, Human PD-1 ECD-His. Briefly: SPR (Biacore T200), antibody captured on PrismA chip, ECD as analyte; temperature unclear: the 37° C. label is printed only at r14, by the order of Table 3a probably 37° C. How it is done:
as §1, §2

The target in the next assay is T5, Cynomolgus PD-1-ECD (cynomolgus, UniProt B0LAJ3 25-170).
T5 construct: commercial protein; also called cynomolgus PD-1-ECD (Sino Biologicals, Cat #90311-C08H); not shown: C-terminal polyhistidine tag of the vendor product (Sino Biological 90311-C08H)
T5 sequence (B0LAJ3 entry or part of it limits assumed): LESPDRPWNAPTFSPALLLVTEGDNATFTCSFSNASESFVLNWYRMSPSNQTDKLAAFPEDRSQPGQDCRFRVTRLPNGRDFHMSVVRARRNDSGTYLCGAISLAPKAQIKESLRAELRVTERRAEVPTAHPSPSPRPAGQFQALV
The assay is described as above. How it is done:
as §1, §2

For assay [6], the target named is T2, Human PD-1 ECD-His. Briefly: SPR (Biacore T200), antibody captured on PrismA chip, ECD as analyte; temperature unclear: the 37° C. label is printed only at r14, by the order of Table 3a probably 37° C.; 37° C. (label printed late, at r14). How it is done:
as §1, §3

Changes are numbered by the printed parent chain.

T3 sequence (P79185 26-458): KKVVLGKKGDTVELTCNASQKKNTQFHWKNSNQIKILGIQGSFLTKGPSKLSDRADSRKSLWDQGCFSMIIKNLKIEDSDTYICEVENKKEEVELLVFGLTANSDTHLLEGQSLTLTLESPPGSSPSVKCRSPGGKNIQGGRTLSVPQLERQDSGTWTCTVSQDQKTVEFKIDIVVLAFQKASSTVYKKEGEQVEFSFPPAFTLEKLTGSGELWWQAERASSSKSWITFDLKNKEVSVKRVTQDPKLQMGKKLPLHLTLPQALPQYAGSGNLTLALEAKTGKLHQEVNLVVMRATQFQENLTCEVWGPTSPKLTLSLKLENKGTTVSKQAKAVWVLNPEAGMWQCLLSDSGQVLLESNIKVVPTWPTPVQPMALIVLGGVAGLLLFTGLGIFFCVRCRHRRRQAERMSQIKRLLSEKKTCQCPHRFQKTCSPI

B1: Antibody A (bispecific antibody, human IgG1, kappa, lambda)
heavy 1: not shown
light 1: DIVMTQTPLSLPVTPGEPASISCRSSQSLLDSAEGSTYLDWFLRKPGDSPQLLIYTLSYRASGVPDRFSGSGSGTDFTLKISRVEAEDVGVYYCMQRVEFPYTFGQGTKVEIKRTVAAPSVFIFPPSKEQLKSGTASVVCLLNNFYPREAKVQWKVDNALQSGNSQESVTEQDSKDSTYSLSSTLTLSKADYEKHKVYACEVTHQGLSSPVTKSFNRGEC
heavy 2: QVQLVQSGAEVKKPGASVKVSCKVSGYSLSKYDMSWVRKAPGKGLEWMGIIYTSGYTDYAQEFQGRVTMTEDTSTDTAYMELSSLRSEDTAVYYCATGNPYYTNGFNSWGQGTLVTVSSASTKGPSVFPLAPSSKSTSGGTAALGCLVKDYFPEPVTVSWNSGALTSGVATGPAVLQSSGLYSLSSVVTVPSSSLGTQTYICNVNHKPSNTKVDKRVEPKSCDKTHTCPPCPAPELLGGPSVFLFPPKPKDTLMISRTPEVTCVVVDVSHEDPEVKFNWYVDGVEVHNAKTKPREEQYNSTYRVVSVLTVLHQDWLNGKEYKCKVSNKALPAPIEKTISKAKGQPREPQVYTLPPSREEMTDNQVSLTCLVKGFYPSDIAVEWESNGQPENNYKTTPPVLMSDGSFFLASKLTVDKSRWQQGNVFSCSVMHEALHNHYTQKSLSLSPGK
light 2: RIQMTQSPSSLSASVGDRVTITCQASQSPNNLLAWYQDKPGKAPKLLIYGASDLPSGVPSRFSGSGSGTDFTLTISSLQPEDFATYYCQNNYYVGPVSYAFGGGTKVEIKGQPKAAPSVTLFPPSSEELQANKATLVCYISDFYPGAVTVAWKADSSPVKAGVETTTPSKQSNNKYAAWSYLSLTPEQWKSHRSYSCQVTHEGSTVEKTVAPTEC
notes: IgG-like bispecific with one LAG-3 arm and one PD-1 arm; also called human LAG-3/human PD-1 dual agonist bispecific antibody
As to B1, in the assay with Cynomolgus LAG-3-ECD, the Kd came to 0.031 nM. For the same molecule, the koff in the assay with Cynomolgus LAG-3-ECD stood at 0.0017 s⁻¹. The kon is 5.4e+07 M⁻¹ s⁻¹ with Cynomolgus LAG-3-ECD and 750000 M⁻¹ s⁻¹ in the assay with Human PD-1 ECD-His [1]. In addition, the 50% effective concentration (EC50) in assay [2] worked out at 0.0167 mg/L; in assay [3], 0.0293 mg/L; in assay [4] it was 0.0357 mg/L.

B2: Antibody B (bispecific antibody, human IgG1, kappa, lambda)
heavy 1: not shown
light 1: B1 light 1
heavy 2: B1 heavy 2 with K324A
light 2: B1 light 2
notes: also called human LAG-3/human PD-1 dual agonist bispecific antibody
As to B2, the Kd with Cynomolgus LAG-3-ECD was found to be 0.031 nM; with Human PD-1 ECD-His [5], 0.65 nM; with Cynomolgus PD-1-ECD, 3.1 nM. The koff with Cynomolgus LAG-3-ECD was determined as 0.0017 s⁻¹; with Human PD-1 ECD-His [5], 0.0015 s⁻¹; in the assay with Cynomolgus PD-1-ECD, 0.0088 s⁻¹. Further, the on-rate (kon) with Cynomolgus LAG-3-ECD amounted to 5.5e+07 M⁻¹ s⁻¹; with Cynomolgus PD-1-ECD it was 2.8e+06 M⁻¹ s⁻¹; with Human PD-1 ECD-His [6] it was 2.4e+06 M⁻¹ s⁻¹. For the same molecule, the EC50 amounted to 0.018 mg/L in assay [2], 0.0337 mg/L in assay [3] and 0.0423 mg/L in assay [4].

What is called Kd is the free concentration of one partner at which half of the binding sites on the other are occupied at equilibrium, for simple one-to-one binding. The term koff denotes the first-order rate constant of dissociation. A word on the kon: it is the rate constant with which the complex forms. Read a low kon as slower complex formation. The term EC50 denotes the concentration that produces a half-maximal response. The low end stands for a more potent agent, the high end for a less potent agent.

The record behind these values is patent publication US20240166745A1 (Eli Lilly, published 2024).
